# T1: FcγRIIb (human, UniProt P31994 43-217)
# T1 construct: extracellular domain; Soluble extracellular domain with a C-terminal His tag, expressed in FreeStyle293 cells; also called FcgRIIb; 2b; not shown: His tag attached to the C terminus
# T1 sequence (looked up): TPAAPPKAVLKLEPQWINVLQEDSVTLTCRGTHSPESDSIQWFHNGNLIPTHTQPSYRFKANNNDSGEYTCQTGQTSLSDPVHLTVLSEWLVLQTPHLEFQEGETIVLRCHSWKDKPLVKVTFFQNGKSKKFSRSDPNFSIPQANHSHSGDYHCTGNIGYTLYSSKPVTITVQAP
# T2: FcγRIIa H (FcγRIIa type H, His at position 131), extracellular domain with C-terminal His tag (human, UniProt P12318 34-217)
# T2 construct: extracellular domain; expressed in FreeStyle293 cells; also called FcgRIIa H; 2aH; not shown: His tag attached to the C terminus
# T2 sequence (looked up): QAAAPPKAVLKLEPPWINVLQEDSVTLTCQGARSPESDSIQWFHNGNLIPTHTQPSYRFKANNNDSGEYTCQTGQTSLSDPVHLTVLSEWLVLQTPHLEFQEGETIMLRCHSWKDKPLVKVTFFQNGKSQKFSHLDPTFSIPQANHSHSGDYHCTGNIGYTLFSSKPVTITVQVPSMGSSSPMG
# T3: FcγRIIb, extracellular domain with C-terminal His tag (human, UniProt P31994 43-217)
# T3 construct: extracellular domain; expressed in FreeStyle293 cells; also called FcgRIIb; 2b; not shown: His tag attached to the C terminus
# T3 sequence (looked up): T1 sequence (looked up)
# B1: GpH7-A5/GpH7-B3 variant P238_15Y/GpL16-k0 (antibody, human IgG1, kappa)
# heavy 1: not shown
# heavy 2: not shown
# light: DIVMTQSPLSLPVTPGEPASISCQASESLVHSNRNTYLHWYLQKPGQSPQLLIYKVSNRFSGVPDRFSGSGSGTDFTLKISRVEAEDVGVYYCSQNTHVPPTFGQGTKVEIERTVAAPSVFIFPPSDEQLKSGTASVVCLLNNFYPREAKVQWKVDNALQSGNSQESVTEQDSKDSTYSLSSTLTLSKADYEKHKVYACEVTHQGLSSPVTKSFNRGEC
# notes: Heterodimerized anti-glypican-3 IgG1; the mutation is in the GpH7-B3 chain only; also called He Ab
# B2: GpH7-A5/GpH7-B3 variant P238_09D/GpL16-k0 (antibody, human IgG1, kappa)
# heavy 1: not shown
# heavy 2: not shown
# light: B1 light
# notes: as for B1
# B3: GpH7-A5/GpH7-B3 variant P238_04F/GpL16-k0 (antibody, human IgG1, kappa)
# heavy 1: not shown
# heavy 2: not shown
# light: B1 light
# notes: as for B1
# B4: GpH7-A5/GpH7-B3 variant P238_10E/GpL16-k0 (antibody, human IgG1, kappa)
# heavy 1: not shown
# heavy 2: not shown
# light: B1 light
# notes: as for B1
# B5: GpH7-A5/GpH7-B3 variant S239_10E/GpL16-k0 (antibody, human IgG1, kappa)
# heavy 1: not shown
# heavy 2: not shown
# light: B1 light
# notes: Heterodimerized antibody (He Ab): mutation in the GpH7-B3 chain only; also called He Ab
# B6: GpH7-A5/GpH7-B3 variant V266_13S/GpL16-k0 (antibody, human IgG1, kappa)
# heavy 1: not shown
# heavy 2: not shown
# light: B1 light
# notes: as for B5
# B7: GpH7-A5/GpH7-B3 variant V266_08L/GpL16-k0 (antibody, human IgG1, kappa)
# heavy 1: not shown
# heavy 2: not shown
# light: B1 light
# notes: as for B5
# B8: GpH7-A5/GpH7-B3 variant S239_18N/GpL16-k0 (antibody, human IgG1, kappa)
# heavy 1: not shown
# heavy 2: not shown
# light: B1 light
# notes: as for B5
# B9: GpH7-A5/GpH7-B3 variant V266_12R/GpL16-k0 (antibody, human IgG1, kappa)
# heavy 1: not shown
# heavy 2: not shown
# light: B1 light
# notes: as for B5
# B10: GpH7-A5/GpH7-B3 variant V266_10E/GpL16-k0 (antibody, human IgG1, kappa)
# heavy 1: not shown
# heavy 2: not shown
# light: B1 light
# notes: as for B5
# B11: GpH7-A5/GpH7-B3 variant V266_04F/GpL16-k0 (antibody, human IgG1, kappa)
# heavy 1: not shown
# heavy 2: not shown
# light: B1 light
# notes: as for B5
# B12: GpH7-A5/GpH7-B3 variant V266_14T/GpL16-k0 (antibody, human IgG1, kappa)
# heavy 1: not shown
# heavy 2: not shown
# light: B1 light
# notes: as for B5
# B13: GpH7-A5/GpH7-B3 variant S239_20W/GpL16-k0 (antibody, human IgG1, kappa)
# heavy 1: not shown
# heavy 2: not shown
# light: B1 light
# notes: as for B5
# B14: GpH7-A5/GpH7-B3 variant V266_09D/GpL16-k0 (antibody, human IgG1, kappa)
# heavy 1: not shown
# heavy 2: not shown
# light: B1 light
# notes: as for B5
# B15: GpH7-A5/GpH7-B3 variant V266_01G/GpL16-k0 (antibody, human IgG1, kappa)
# heavy 1: not shown
# heavy 2: not shown
# light: B1 light
# notes: as for B5
# B16: GpH7-A5/GpH7-B3 variant V266_15Y/GpL16-k0 (antibody, human IgG1, kappa)
# heavy 1: not shown
# heavy 2: not shown
# light: B1 light
# notes: as for B5
# B17: GpH7-A5/GpH7-B3 variant V266_07I/GpL16-k0 (antibody, human IgG1, kappa)
# heavy 1: not shown
# heavy 2: not shown
# light: B1 light
# notes: as for B5
# B18: GpH7-A5/GpH7-B3 variant V266_06M/GpL16-k0 (antibody, human IgG1, kappa)
# heavy 1: not shown
# heavy 2: not shown
# light: B1 light
# notes: as for B5
# Target: T4, FcγRIIIa (human, UniProt P08637 17-208)
# T4 construct: extracellular domain; Soluble extracellular domain with a C-terminal His tag; also called FcgRIIIa; 3a; not shown: His tag attached to the C terminus
# T4 sequence (P08637 17-208): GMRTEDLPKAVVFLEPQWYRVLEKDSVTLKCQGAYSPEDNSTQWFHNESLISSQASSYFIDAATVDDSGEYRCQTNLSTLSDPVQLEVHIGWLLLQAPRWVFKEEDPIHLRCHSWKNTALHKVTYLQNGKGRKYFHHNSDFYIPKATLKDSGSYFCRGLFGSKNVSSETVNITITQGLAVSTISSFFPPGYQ
# Assay: SPR (Biacore), antibody captured on chip, FcγR as analyte
row,He/Con_3a,Binder
1,"64.5 relative binding, GpH7-A5/GpH7-B3/GpL16-k0 = 100",B1
2,"106 relative binding, GpH7-A5/GpH7-B3/GpL16-k0 = 100",B2
3,"46.7 relative binding, GpH7-A5/GpH7-B3/GpL16-k0 = 100",B3
4,"105 relative binding, GpH7-A5/GpH7-B3/GpL16-k0 = 100",B4

# Target: T1, FcγRIIb
# Assay: as above
row,He/Con_2b,Binder
1,"218 relative binding, GpH7-A5/GpH7-B3/GpL16-k0 = 100",B1
2,"221 relative binding, GpH7-A5/GpH7-B3/GpL16-k0 = 100",B2
3,"312 relative binding, GpH7-A5/GpH7-B3/GpL16-k0 = 100",B3
4,"232 relative binding, GpH7-A5/GpH7-B3/GpL16-k0 = 100",B4

# Target: T4, FcγRIIIa
# Assay: SPR; He/Con_3a (FcγRIIIa) divided by He/Con_2b (FcγRIIb)
row,He_3a/2b (IIIa/IIb),Binder
1,0.3 ratio,B1
2,0.48 ratio,B2
3,0.15 ratio,B3
4,0.45 ratio,B4

# Target: T2, FcγRIIa H (FcγRIIa type H, His at …)
# Assay: SPR (Biacore), antibody captured on antigen peptide chip, FcγR as analyte; relative to GpH7-A5/GpH7-B3/GpL16-k0 = 100
row,He/Con_2aH (relative binding activity),Binder
1,112 % of HeCon Ab (= 100),B5
2,27 % of HeCon Ab (= 100),B6
3,104 % of HeCon Ab (= 100),B7
4,94.2 % of HeCon Ab (= 100),B8
5,1.1 % of HeCon Ab (= 100),B9
6,10.1 % of HeCon Ab (= 100),B10
7,25.3 % of HeCon Ab (= 100),B11
8,43.3 % of HeCon Ab (= 100),B12
9,35.2 % of HeCon Ab (= 100),B13
10,6.4 % of HeCon Ab (= 100),B14
11,36.7 % of HeCon Ab (= 100),B15
12,18.1 % of HeCon Ab (= 100),B16
13,106 % of HeCon Ab (= 100),B17
14,83.9 % of HeCon Ab (= 100),B18

# Target: T3, FcγRIIb, extracellular domain with …
# Assay: as above
row,He/Con_2b (relative binding activity),Binder
1,181 % of HeCon Ab (= 100),B5
2,54.4 % of HeCon Ab (= 100),B6
3,236 % of HeCon Ab (= 100),B7
4,119 % of HeCon Ab (= 100),B8
5,-1.1 % of HeCon Ab (= 100),B9
6,15.2 % of HeCon Ab (= 100),B10
7,57.6 % of HeCon Ab (= 100),B11
8,82.3 % of HeCon Ab (= 100),B12
9,45.1 % of HeCon Ab (= 100),B13
10,10.1 % of HeCon Ab (= 100),B14
11,51.5 % of HeCon Ab (= 100),B15
12,49.4 % of HeCon Ab (= 100),B16
13,152 % of HeCon Ab (= 100),B17
14,251 % of HeCon Ab (= 100),B18

# Target: T2, FcγRIIa H (FcγRIIa type H, His at …)
# Assay: SPR (Biacore); He/Con_2aH divided by He/Con_2b (FcγRIIa H against FcγRIIb)
row,He_2aH/2b (IIaH/IIb),Binder
1,0.62 ratio,B5
2,0.5 ratio,B6
3,0.44 ratio,B7
4,0.79 ratio,B8
5,-1.05 ratio,B9
6,0.66 ratio,B10
7,0.44 ratio,B11
8,0.53 ratio,B12
9,0.78 ratio,B13
10,0.63 ratio,B14
11,0.71 ratio,B15
12,0.37 ratio,B16
13,0.69 ratio,B17
14,0.33 ratio,B18

# — patent US20150344570A1 (published 2015)
